In patent CN114249819A:

What was measured:
[1] = biological target: 猫泛白细胞减少症病毒1009株 (Feline panleukopenia virus); test: indirect immunofluorescence on acetone-fixed F81 cells infected with FPV 1009 strain
[2] = biological target: 猫泛白细胞减少症病毒1009株 (Feline panleukopenia virus); test: cell-based or functional assay

B1: 单克隆抗体3C3 (antibody, V domains shown)
VH: DVKLVESGGGLVNLGGSLKLSCAASGFTFSSYYMSWVRQTPEKRLELVAAINSNGGGTHSPDTVKGRFTISRDNAKNTLYLQMSSLESEDTALYYCARHADDGSFGLNWYFDVWGAGTTVTVSS
VL: DIVMSQSPSSLAVSVGEKVTMSCKSSQSLLYRSNEKNYLAWYQQKPGQSPKLLIYWGSTRESGVPDRFTGSGSGTDFTLTISSVKAEDLAVYYCHQYYRYSYTFGGGTKLEIK
[1]
  IFA效价 (reciprocal dilution (printed 1:n)): 6400
[2]
  HI效价 (reciprocal dilution (printed 1:n)): 5120
